Source: patent publication US20240317847A1 (Bayer, published 2024)
Numbering of substitutions follows the chain as printed.

T1: human IL2Ra (human, UniProt P01589 22-240, limits assumed)
T1 construct: bought protein, coated on the plate; also called hIL2RA; IL-2 receptor alpha
T1 sequence (looked up): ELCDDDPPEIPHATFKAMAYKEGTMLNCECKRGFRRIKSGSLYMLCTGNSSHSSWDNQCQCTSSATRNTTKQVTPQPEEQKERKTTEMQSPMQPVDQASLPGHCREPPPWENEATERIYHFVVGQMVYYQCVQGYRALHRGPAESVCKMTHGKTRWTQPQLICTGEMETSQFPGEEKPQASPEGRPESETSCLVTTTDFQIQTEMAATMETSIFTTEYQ

T2: murine IL-11 (mouse, UniProt P47873 22-199)
T2 sequence: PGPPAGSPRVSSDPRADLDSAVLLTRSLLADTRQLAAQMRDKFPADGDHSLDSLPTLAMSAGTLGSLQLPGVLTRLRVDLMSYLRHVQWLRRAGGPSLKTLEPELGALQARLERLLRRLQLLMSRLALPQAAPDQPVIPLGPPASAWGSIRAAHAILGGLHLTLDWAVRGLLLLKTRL

T3: human IL-11 (human, UniProt P20809 22-199)
T3 sequence: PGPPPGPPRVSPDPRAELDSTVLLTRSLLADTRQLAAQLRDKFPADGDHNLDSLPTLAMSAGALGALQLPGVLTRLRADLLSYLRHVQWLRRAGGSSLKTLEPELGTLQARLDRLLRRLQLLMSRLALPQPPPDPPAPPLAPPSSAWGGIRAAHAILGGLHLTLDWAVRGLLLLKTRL

B1: TPP-26298 (antibody, V domains shown)
VH: EVQLLESGGGLVQPGGSLRLSCAASGFTFSSYGMHWVRQAPGKGLEWVSVISYDGSYKYYADSVKGRFTISRDNSKNTLYLQMNSLRAEDTAVYYCAAGVPDYWGQGTLVTVSS
VL: QSVLTQPPSASGTPGQRVTISCLGSSSNIGAGYDVHWYQQLPGTAPKLLIYSNNERPSGVPDRFSGSKSGTSASLAISGLRSEDEADYYCAAWDDSLNGPVFGGGTKLTVL
B2: TPP-26299 (antibody, V domains shown)
VH: B1 VH
VL: B1 VL with L23T, N98Y
B3: TPP-26300 (antibody, V domains shown)
VH: B1 VH
VL: B1 VL with L23T, D95S
B4: TPP-26302 (antibody, V domains shown)
VH: B1 VH
VL: B1 VL with L23T, A91S
B5: TPP-26303 (antibody, V domains shown)
VH: B1 VH
VL: B1 VL with L23T, S58E
B6: TPP-26304 (antibody, V domains shown)
VH: B1 VH
VL: B1 VL with L23T, G30W
B7: TPP-26306 (antibody, V domains shown)
VH: B1 VH
VL: B1 VL with L23T, D95Q
B8: TPP-26307 (antibody, V domains shown)
VH: B1 VH
VL: B1 VL with L23T, D95I
B9: TPP-26308 (antibody, V domains shown)
VH: B1 VH
VL: B1 VL with L23T, D95V
B10: TPP-26309 (antibody, V domains shown)
VH: B1 VH
VL: B1 VL with L23T, D95F
B11: TPP-26310 (antibody, V domains shown)
VH: B1 VH
VL: B1 VL with L23T, S58W

Columns and labels:
human IL2Ra = target: T1, human IL2Ra; test: IL2Ra direct binding ELISA, signal ratio to isotype control
Experimental: IL2RA (Peprotech, Germany, #200-02RC) was coated at 1 or 0 μg/ml (buffer only control) in 30 μl coating buffer (Candor, #113500) per well on a 384 well microtiter plate (Maxisorb, Nunc, #460518) over night at 4-8° C. After two washes with 50 μl/well washing buffer (PBS+0.05% Tween, pH 7.4), the plates were incubated for two hours at room temperature with 50 μl/well SmartBlock (Candor, #113500). After blocking, the plates were washed three times with washing buffer. Then, a dilution series of the respective antibody (1E-7 [M] down to 2E-13 [M]) in PBS+0.05% Tween, 10% SmartBlock were added in 30 μl to the microtiter plate and incubated for 90 min at room temperature. After three additional washes, 30 μl anti mouse IgG HRP-conjugated antibody (Biotechne, HAF007), diluted 1:1000 in PBS+0.05% Tween (pH 7.4), were added per well and incubated for one hour. After three additional washes, a mixture of Amplex red (Invitrogen, #12222, 10 mM stock solution in DMSO) 1:1000 diluted in PBS and H2O2 (30%, Merck, #107209)) diluted 1:10000 in PBS were added as substrate with 30 μl per well and incubated for 20 min in the dark. Relative fluorescence was measured with a microtiter plate reader at 535/590 nm.
Next, the 42 antibodies were subjected to an IL2Ra binding ELISA as described in Example 20.

murine IL-11 = target: T2, murine IL-11; test: cell-based or functional assay
human IL-11 = target: T3, human IL-11; test: cell-based or functional assay

Binder	hIL2RA ELISA Binding: Ratio to Isotpye (human IL2Ra) [ratio]	RGA Efficacy (%) (murine IL-11)	RGA IC50 (murine IL-11) [nM]	RGA Efficacy (%) (human IL-11)	RGA IC50 (human IL-11) [nM]
B1	474	96.3	1.5	62.9	4.1
B2	96	96.9	0.94	70.1	3.1
B3	447	94.9	1.1	75.5	3.3
B4	522	94.3	1.1	65.8	22
B5	481	95.7	2.3	70.2	22
B6	436	95.2	1.2	70.4	5.9
B7	232	96.4	1.5	70	2.2
B8	176	92.3	1.9	52.7	5.3
B9	188	91.6	1.3	63.6	5.9
B10	234	92.2	0.94	63.9	1.5
B11	231	94.3	1.1	59.5	4.5
